In article PMC3413214, “Structural and biochemical characterization of a trapped coenzyme A adduct of Caenorhabditis elegans glucosamine-6-phosphate N-acetyltransferase 1” (Acta Crystallographica Section D: Biological Crystallography, 2012) one finds Km, kcat and kcat/Km data, which are given here for two proteins.

Substitutions are numbered along the chain they refer to. Numbers in names are those of the source.

Substrate in this series: CC(=O)SCCNC(=O)CCNC(=O)[C@H](O)C(C)(C)COP(=O)(O)OP(=O)(O)OC[C@H]1O[C@@H](n2cnc3c(N)ncnc32)[C@H](O)[C@@H]1OP(=O)(O)O
Briefly: purified protein. Particulars: GlcN-6P constant, 25 mM Tris-HCl pH 7.5, 250 mM NaCl, 2 mM EDTA, 5% glycerol, 293 K, 20.0 °C. The format is biochemical, Caenorhabditis elegans.

B1: CeGNA1 (Caenorhabditis elegans) (protein)
chain: MSHIFDASVLAPHIPSNLPDNFKVRPLAKDDFSKGYVDLLSQLTSVGNLDQEAFEKRFEAMRTSVPNYHIVVIEDSNSQKVVASASLVVEMKFIHGAGSRGRVEDVVVDTEMRRQKLGAVLLKTLVSLGKSLGVYKISLECVPELLPFYSQFGFQDDCNFMTQRF
notes: full-length, 165 residues; GST fusion from pGEX-6P-1 in E. coli BL21(DE3) pLysS, GST cut with PreScission protease; homodimer; 18 876 Da by MALDI
Regarding B1, for the setting “3 nM enzyme”, the Michaelis-Menten constant (Km) – broadly, the concentration of substrate that gives half-maximal velocity – was 192 ± 16 µM; the turnover number (kcat) (in general, the number of substrate molecules converted per active site and unit of time at saturation) came to 252 s⁻¹; the kcat/Km (commonly the turnover number divided by the Michaelis constant) was 1.3e+06 M⁻¹ s⁻¹.

B2: CeGNA1 (Caenorhabditis elegans; C141S) (protein)
chain: B1 chain with C141S
notes: as for B1
Regarding B2, for the setting “10 nM enzyme”, the Km amounted to 261 ± 33 µM, the catalytic constant (kcat) was 48 s⁻¹ and the specificity constant (kcat/Km) was determined as 200000 M⁻¹ s⁻¹.
